From patent publication US20200079855A1 (Pfizer, published 2020)

Legend:
[1] = target: T1, recombinant human αvβ3 integrin (human, UniProt P06756 31-992; P05106 27-718); experiment: SPR (Biacore)
T1 construct: Used in ELISA and immobilised on the Biacore chip; construct not described; also called hαvβ3; AVB3

[2] = target: T2, recombinant human αvβ6 integrin (human, UniProt P06756 31-992; P18564 22-707); experiment: SPR (Biacore)
T2 construct: Used in ELISA and immobilised on the Biacore chip; construct not described; also called hαvβ6; AVB6

[3] = target: recombinant human αvβ8 integrin (human) (UniProt P06756); experiment: SPR (Biacore T200), Fab over biotinylated recombinant αvβ8 on streptavidin chip, n>=3
[4] = target: T3, recombinant mouse αvβ8 integrin (mouse, UniProt P43406 31-988; Q0VBD0 22-681, limits assumed); experiment: SPR (Biacore), additional experiments
T3 construct: Recombinant protein immobilised on the Biacore chip
Experimental: (§1) More specifically, recombinant αvβ8 integrin (e.g., R&D Systems) was biotin labeled via primary amines and immobilized on a Sensor Chip SA using a Biacore™ T200 instrument (GE Healthcare Life Sciences). Fab binding experiments were performed at 25° C. using a 30 μl/min flow rate in 0.01 M HEPES pH 7.4, 0.15 M NaCl, 1-2 mM MgCl₂, and 0.005% v/v surfactant P20 (HBS-P) buffer. Association was monitored for 5-10 minutes and dissociation for a further 15-20 minutes for each Fab concentration. After each injection, the chip surface was regenerated with IgG elution buffer (Thermo Fisher Scientific). All data was analyzed using the Biacore™ T200 Evaluation software. Data was dual background subtracted using the adjacent flow cell coupled with streptavidin without captured integrin, and buffer only injections. Kinetic constants for at least three experiments were obtained and reported as the mean.

[5] = target: T4, recombinant cynomolgus monkey αvβ8 integrin (cynomolgus monkey, limits assumed); experiment: SPR (Biacore), additional experiments
T4 construct: Recombinant protein immobilised on the Biacore chip; also called cyno αvβ8; cynomolgus αvβ8
T4 chain 1: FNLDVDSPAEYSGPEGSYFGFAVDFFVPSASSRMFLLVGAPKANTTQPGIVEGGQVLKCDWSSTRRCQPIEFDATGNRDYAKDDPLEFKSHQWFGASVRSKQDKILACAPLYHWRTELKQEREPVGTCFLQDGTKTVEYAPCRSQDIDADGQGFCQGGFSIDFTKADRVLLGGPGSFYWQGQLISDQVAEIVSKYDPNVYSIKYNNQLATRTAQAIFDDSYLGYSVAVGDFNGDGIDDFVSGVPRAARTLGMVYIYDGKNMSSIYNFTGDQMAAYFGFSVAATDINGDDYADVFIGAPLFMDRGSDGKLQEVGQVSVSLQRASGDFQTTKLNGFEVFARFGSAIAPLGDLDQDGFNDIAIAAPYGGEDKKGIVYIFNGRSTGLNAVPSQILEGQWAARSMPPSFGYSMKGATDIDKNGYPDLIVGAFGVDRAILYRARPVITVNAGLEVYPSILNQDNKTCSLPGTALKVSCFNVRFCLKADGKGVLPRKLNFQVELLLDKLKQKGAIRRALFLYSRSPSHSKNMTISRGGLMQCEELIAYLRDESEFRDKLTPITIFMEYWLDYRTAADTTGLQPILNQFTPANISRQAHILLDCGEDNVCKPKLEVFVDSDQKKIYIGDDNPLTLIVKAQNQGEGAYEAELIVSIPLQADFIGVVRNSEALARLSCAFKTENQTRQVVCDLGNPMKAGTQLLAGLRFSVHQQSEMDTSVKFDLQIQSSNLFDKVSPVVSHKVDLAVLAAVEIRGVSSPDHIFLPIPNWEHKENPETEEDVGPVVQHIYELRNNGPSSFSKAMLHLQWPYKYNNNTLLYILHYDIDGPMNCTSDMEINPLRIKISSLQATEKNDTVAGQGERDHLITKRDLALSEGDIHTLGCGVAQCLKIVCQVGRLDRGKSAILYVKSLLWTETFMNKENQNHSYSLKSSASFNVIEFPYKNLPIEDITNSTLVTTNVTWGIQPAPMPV
T4 chain 2: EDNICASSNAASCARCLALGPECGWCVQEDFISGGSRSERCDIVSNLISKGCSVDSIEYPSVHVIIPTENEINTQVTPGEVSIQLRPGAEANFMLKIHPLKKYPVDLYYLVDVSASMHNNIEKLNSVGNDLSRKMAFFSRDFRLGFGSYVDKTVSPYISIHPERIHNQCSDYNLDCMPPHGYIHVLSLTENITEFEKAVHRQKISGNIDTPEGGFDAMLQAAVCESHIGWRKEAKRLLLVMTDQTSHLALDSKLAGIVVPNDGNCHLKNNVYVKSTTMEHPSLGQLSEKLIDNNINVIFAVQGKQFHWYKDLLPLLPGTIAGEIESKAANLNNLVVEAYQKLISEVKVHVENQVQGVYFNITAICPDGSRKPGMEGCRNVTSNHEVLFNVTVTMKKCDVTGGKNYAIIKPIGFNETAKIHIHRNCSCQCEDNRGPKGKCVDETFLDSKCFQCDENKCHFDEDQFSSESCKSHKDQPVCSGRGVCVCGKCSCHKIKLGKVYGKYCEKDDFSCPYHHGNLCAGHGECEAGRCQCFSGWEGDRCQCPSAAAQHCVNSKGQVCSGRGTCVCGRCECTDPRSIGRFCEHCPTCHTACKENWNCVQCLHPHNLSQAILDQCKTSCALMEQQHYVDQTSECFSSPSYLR
Experimental: as §1

[6] = target: recombinant human αvβ8 integrin (human) (UniProt P06756); experiment: SPR (Biacore), additional experiments
[7] = target: human αvβ8 integrin on U251 cells (human, UniProt P06756 31-1048); experiment: flow cytometry, Fab binding to fixed U251 cells (MFI APC-A); EC50 unit inferred, axis Log10 [Ab] (nM)
[8] = target: T3, recombinant mouse αvβ8 integrin; experiment: SPR (Biacore T200), Fab over biotinylated recombinant αvβ8 on streptavidin chip, n>=3
Experimental: as §1
(§2) To evaluate the monomeric KD of the Fab ADWA11 2.4, also referred to herein as ADWA-11 VH05-2/VK01(2.4) and ADWA11 5-2 2.4, and the parental mouse IgG, recombinant human, cynomolgus, mouse, and rat αvβ8 was immobilized on a Biacore chip and the ka and kd of the Fabs were determined as generally described herein (Table 6).

[9] = target: T5, recombinant rat αvβ8 integrin (rat, UniProt F1LZX9 31-987; A0A0G2JVU1 43-682); experiment: as above
T5 construct: Recombinant protein immobilised on the Biacore chip
Experimental: as §1, §2

[10] = target: T4, recombinant cynomolgus monkey αvβ8 …; experiment: as above
Experimental: as §1, §2

T3 sequence (P43406 31-988 limits assumed, chain 1 of 2): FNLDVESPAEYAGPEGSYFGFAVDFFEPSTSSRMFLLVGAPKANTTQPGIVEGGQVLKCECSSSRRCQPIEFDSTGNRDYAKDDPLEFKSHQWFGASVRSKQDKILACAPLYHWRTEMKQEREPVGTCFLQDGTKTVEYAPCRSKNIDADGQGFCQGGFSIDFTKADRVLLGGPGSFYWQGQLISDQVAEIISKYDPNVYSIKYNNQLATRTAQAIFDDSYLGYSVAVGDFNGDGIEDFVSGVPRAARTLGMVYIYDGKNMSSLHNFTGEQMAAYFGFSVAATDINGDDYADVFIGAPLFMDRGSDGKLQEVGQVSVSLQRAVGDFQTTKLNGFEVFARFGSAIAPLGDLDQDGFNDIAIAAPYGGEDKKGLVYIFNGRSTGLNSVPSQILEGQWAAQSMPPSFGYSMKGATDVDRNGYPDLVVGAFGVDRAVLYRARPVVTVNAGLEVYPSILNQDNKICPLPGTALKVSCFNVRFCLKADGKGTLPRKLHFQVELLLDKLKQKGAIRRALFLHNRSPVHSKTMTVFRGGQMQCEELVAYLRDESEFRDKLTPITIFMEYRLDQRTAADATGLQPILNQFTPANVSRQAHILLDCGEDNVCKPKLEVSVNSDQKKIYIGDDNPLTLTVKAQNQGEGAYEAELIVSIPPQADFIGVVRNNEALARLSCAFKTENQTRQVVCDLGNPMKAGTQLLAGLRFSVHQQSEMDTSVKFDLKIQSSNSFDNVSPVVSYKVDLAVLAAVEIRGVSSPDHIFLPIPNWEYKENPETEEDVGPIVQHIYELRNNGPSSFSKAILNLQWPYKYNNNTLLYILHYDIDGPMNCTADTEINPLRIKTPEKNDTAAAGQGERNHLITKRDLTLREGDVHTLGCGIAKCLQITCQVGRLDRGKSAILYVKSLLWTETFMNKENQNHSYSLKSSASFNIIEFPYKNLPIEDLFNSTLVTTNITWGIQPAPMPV
T3 sequence (Q0VBD0 22-681 limits assumed, chain 2 of 2): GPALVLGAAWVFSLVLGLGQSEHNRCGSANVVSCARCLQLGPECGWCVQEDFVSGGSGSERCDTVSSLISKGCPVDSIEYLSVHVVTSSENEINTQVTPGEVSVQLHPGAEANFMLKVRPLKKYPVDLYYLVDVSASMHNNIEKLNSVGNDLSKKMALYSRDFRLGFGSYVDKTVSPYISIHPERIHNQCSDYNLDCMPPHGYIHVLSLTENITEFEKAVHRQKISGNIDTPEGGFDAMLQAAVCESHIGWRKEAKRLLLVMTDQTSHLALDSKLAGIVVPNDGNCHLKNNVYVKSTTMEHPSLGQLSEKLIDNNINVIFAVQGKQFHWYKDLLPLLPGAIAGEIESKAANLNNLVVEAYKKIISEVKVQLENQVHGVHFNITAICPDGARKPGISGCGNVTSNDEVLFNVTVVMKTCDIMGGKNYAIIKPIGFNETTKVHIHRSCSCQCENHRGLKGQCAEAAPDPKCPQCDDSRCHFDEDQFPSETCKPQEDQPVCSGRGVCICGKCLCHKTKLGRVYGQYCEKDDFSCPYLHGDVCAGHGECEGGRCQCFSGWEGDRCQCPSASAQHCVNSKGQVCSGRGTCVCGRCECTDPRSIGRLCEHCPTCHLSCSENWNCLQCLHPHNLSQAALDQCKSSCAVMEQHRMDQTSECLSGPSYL
T2 sequence (P18564 22-707 limits assumed, one chain of several): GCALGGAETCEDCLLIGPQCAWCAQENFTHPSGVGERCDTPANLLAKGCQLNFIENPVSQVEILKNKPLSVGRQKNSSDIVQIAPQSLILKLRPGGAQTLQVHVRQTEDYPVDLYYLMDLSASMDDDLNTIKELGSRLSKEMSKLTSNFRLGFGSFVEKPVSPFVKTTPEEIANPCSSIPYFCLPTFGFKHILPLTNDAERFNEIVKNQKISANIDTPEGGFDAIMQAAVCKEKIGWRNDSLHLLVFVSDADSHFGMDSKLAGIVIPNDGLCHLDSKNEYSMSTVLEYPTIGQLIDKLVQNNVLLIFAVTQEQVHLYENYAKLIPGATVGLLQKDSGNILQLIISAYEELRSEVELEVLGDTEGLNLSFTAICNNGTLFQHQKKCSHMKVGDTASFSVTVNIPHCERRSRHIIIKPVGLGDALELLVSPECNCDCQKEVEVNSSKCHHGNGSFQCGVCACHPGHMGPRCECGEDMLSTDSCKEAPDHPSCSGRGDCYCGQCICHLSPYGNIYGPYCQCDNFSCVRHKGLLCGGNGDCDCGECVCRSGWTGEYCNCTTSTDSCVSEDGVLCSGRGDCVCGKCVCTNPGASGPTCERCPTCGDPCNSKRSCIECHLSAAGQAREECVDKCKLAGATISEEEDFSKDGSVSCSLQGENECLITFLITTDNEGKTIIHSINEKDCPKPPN
T1 sequence (P05106 27-718 limits assumed, one chain of several): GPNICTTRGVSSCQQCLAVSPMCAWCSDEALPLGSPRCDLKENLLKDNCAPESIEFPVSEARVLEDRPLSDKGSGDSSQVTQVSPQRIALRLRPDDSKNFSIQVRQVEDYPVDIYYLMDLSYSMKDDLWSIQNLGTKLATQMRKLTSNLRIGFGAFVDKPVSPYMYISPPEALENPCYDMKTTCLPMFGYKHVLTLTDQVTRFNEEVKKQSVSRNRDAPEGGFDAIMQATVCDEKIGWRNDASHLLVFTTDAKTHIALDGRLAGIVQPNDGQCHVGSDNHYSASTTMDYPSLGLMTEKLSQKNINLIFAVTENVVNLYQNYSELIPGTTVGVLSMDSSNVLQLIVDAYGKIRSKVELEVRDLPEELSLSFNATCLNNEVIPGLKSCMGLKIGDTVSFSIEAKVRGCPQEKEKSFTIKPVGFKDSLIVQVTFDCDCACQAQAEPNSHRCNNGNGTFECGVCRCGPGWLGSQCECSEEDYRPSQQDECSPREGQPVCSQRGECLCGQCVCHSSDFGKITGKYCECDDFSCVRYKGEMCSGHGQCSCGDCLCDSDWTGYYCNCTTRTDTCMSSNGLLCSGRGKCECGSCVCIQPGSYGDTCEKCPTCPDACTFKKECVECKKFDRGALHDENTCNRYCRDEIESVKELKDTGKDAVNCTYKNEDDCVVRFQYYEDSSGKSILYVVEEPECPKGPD

B1: ADWA11 2.4 Fab (Fab, V domains shown)
VH: EVQLVESGGGLVQPGGSLRLSCAASGFNIKDYYMNWVRQAPGKGLEWVGWIDPDQGNTIYEPKFQGRFTISADTSKNSAYLQMNSLRAEDTAVYYCARRLLMDYWGQGTLVTVSS
VL: DIQMTQSPSSLSASVGDRVTITCRSTKSLSHFNGNTYLFWYQQKPGKAPKRLIYYMSSLASGVPSRFSGSGSGTDFTLTISSLQPEDFATYYCQQSLEYPFTFGGGTKVEIK
notes: Fab; also called ADWA11 5-2 2.4; ADWA11_5-2 2.4 Fab
binding result [1]: no binding | binding result [2]: no binding | Kd [3]: < 200 pM | koff [3]: < 3e-05 s⁻¹ | kon [3]: 161000 M⁻¹ s⁻¹ | Kd [4]: 70.8 pM | Kd [5]: < 100 pM | Kd [6]: < 100 pM | EC50 [7]: 206 pM | Kd [8]: ≤ 200 pM | koff [8]: 1.82e-05 s⁻¹ | kon [8]: 257000 M⁻¹ s⁻¹ | Kd [9]: ≤ 200 pM | koff [9]: ≤ 2e-05 s⁻¹ | kon [9]: 341000 M⁻¹ s⁻¹ | Kd [10]: ≤ 200 pM | koff [10]: ≤ 2e-05 s⁻¹ | kon [10]: 172000 M⁻¹ s⁻¹
